Test results taken from patent publication US20260130994A1.

Molecular target: CD3ε on wildtype primary human T cells (human) (UniProt P07766)
Experiment: cell-based or functional assay

CAR4 (CD3ε.CD8α.4-1BB.CD3ζ), myc-tagged second-generation CAR with the OKT3 scFv, expressed on NK-92 cells, sequence (chain): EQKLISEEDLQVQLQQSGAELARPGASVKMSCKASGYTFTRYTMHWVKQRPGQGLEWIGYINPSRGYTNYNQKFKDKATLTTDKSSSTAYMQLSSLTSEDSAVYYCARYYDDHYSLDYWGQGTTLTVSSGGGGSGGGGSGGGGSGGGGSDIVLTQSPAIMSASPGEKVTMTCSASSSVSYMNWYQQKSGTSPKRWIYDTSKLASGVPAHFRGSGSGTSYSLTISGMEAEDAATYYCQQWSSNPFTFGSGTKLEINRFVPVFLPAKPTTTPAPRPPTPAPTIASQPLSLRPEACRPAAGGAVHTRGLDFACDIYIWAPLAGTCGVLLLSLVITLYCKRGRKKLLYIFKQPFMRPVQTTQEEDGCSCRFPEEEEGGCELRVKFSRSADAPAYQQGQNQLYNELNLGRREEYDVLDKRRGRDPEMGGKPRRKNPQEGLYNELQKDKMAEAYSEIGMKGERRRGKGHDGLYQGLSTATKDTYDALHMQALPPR

average residual TCR+ T cells after co-culture in G-Rex, regimen 1:2A: 0.026%
average residual TCR+ T cells after co-culture in G-Rex, regimen 1:2B: 0.007%
removal of residual wildtype T cells, 2 co-culture cycles: > 99.9%
removal of residual wildtype T cells, single administration: 98.6%
Substance: CAR4 (CD3ε.CD8α.4-1BB.CD3ζ), myc-tagged second-generation CAR with the OKT3 scFv, expressed on NK-92 cells
